Results reported in paper doi:10.1101/2023.02.21.529347v1.

Tested on: CC1(C)[C@H]2CC=C(C=O)[C@@H]1C2
Assay: purified protein
Details: co-substrate F420H2; apparent value; fit with substrate inhibition

Substance “MSMEG_2850 (Mycolicibacterium smegmatis MC2 155; Y124M)” has a Km of 260 ± 20 µM and a kcat of 0.65 ± 0.018 s⁻¹.
